Assay results taken from article PMC13360575.

The binders below were run against chicken IgY (chicken) (assay: BLI; Octet, SAX (streptavidin) biosensors; recombinant Fabs against IgY; KD from a kinetic 1:1 model, global fit over multiple concentrations (partial fits averaged for 3 low-affinity Fabs)).

Binder | Kd [nM] | koff [s⁻¹] | kon [M⁻¹ s⁻¹]
clone 2.1 Fab CB_01 (clonal burst) (Fab, V domains shown) VH: EVQLQESGPSLVKPSQTLSLTCSVTGDSITSGYWNWIRKFPGNKLEYMGYISYSGSTYYNPSLKSRISFTRDTSKNQYYLQLNSVTTEDTATYYCARDFDVWGAGTTVTVSS VL: DIVMTQSQKFMSTSVGDRVSVTCKASQNVGTNVAWSQQKPGQSPKALIYSASYRYSGVPDRFTGSGSGTDFTLTISNVQSEDLAEYFCQQYKSYPLTFGSGTKLEIK | 3.77 | 0.000398 | 105000
clone 2.1 Fab TA_19 (Fab, V domains shown) VH: EVQLQESGPSLVKPSQTLSLTCSVTGDSITSGYWNWIRKFPGNKLEYMGYISYSGSTYYNPSLKSRISITRDTSKNQYYLQLNSVTTEDTATYYCARDFDVWGAGTTVTVSS VL: DIVMTQSQKFMSTSVGDRVSVTCKASQNVGTNVGWFQQKPGQSPKSLIYSASYRYSGVPDRFTGSGSGTDFTLTISNVQSEDLAEYFCHQYYSYPLTFGSGTKLEIK | 0.261 | 8.66e-05 | 331000
clone 2.1 Fab TA_28 (Fab, V domains shown) VH: EVQLQESGPSLVKPSQTLSLTCSVTGDSITSGYWNWIRKFPGNKLEYMGYISYSGGTYYNPSLKSRISITRDTSKNQYYLQLNSVTTEDTATYYCARDFDVWGAGTTVTVSS VL: DIVMTQSQKFMSTSVGDRVSVTCKASQNVGTNVAWYQQKPGQSPKALIYSASYRYSGVPDRFTGSGSGTDFTLTISNVQSEDLAEYFCQQYNSYPLTFGSGTKLEIK | 22 | 0.00309 | 140000
2.1^hi Fab, high-affinity variant of clone 2.1 (Fab, V domains shown) VH: EVQLQESGPSLVKPSQTLSLTCSVTGASITSGYWNWIRKFPGNRLEYMGYISYSGGTYYNPSLKSRISITRDTSKNQYYLQLNSVTTEDTATYYCARDFDVWGAGTTVTVSS VL: DIVMTQSQKFMSTSVGDRVSVTCKASQNVGTNVGWFQQKPGQSPKSLIYSASYRYSGVPDRFTGSGSGTDFTLTISNVQSEDLAEYFCHQYYSYPLTFGSGTKLEIK |  | 6.34e-05 | 1.03e+06
clone 2.1 Fab, unmutated (Fab, V domains shown) VH: EVQLQESGPSLVKPSQTLSLTCSVTGDSITSGYWNWIRKFPGNKLEYMGYISYSGSTYYNPSLKSRISITRDTSKNQYYLQLNSVTTEDTATYYCARDFDVWGAGTTVTVSS VL: DIVMTQSQKFMSTSVGDRVSVTCKASQNVGTNVAWYQQKPGQSPKALIYSASYRYSGVPDRFTGSGSGTDFTLTISNVQSEDLAEYFCQQYNSYPLTFGSGTKLEIK | 26 | 0.00226 | 86700
clone 2.1 Fab TA_16 (Fab, V domains shown) VH: EVQLQESGPSLVKPSQTLSLTCSVTGDSITSGYWNWIRKFPGNKLEYMGYISYSGSTYYNPSLKSRISITRDTSKNQYYLQLNSVTTEDTATYYCARDFDVWGAGTTVTVSS VL: DIVMTQSQKFMSTSVGDRVSVTCKASQNVGTNVGWYQQKPGQSPKSLIFSASYRYSGVPDRFTGSGSGTDFTLTISNVQSEDLAEYFCQQYNSYPLTFGSGTKLEIK | 1.49 | 0.000329 | 221000
clone 2.1 Fab CB_02 (clonal burst) (Fab, V domains shown) VH: EVQLQESGPSLVKPSQTLSLTCSVTGDSITSGYWNWIRKFPGNKLEYMGYISYSGSTYYNPSLKSRISITRDTSKNQYYLQLNSVTTEDTATYYCGRDFDVWGAGTTVTVSS VL: DIVMTQSQKFMSTSVGDRVSVTCKASQNVGTNVGWYQQKPGQSPKALIYSASYRYSGVPDRFTGSGSGTDFTLTISNVQSEDLAEYFCQQYNSYPLTFGSGTKLEIK | 0.507 | 0.000123 | 244000
clone 2.1 Fab TA_10 (Fab, V domains shown) VH: EVQLQESGPSLVKPSQTLSLTCSVTGDSITSGYWNWIRRFPGNKLEYMGYISYSGSTYYNPSLKSRISITRDTSKNQYYLQLNSVTTEDTATYYCARDFDVWGAGTTVTVSS VL: DIVMTQSQKFMSTSVGDRVSVTCKASQNVGTNVAWYQQKPGQSPKALIYSASYRYSGVPDRFTGSGSGTDFTLTISNVQSEDLAEYFCQQYNSYPLTFGSGTKLEIK | 22.3 | 0.0034 | 152000
clone 2.1 Fab TA_26 (Fab, V domains shown) VH: EVQLQESGPSLVKPSQTLSLTCSVTGDSITSGYWNWIRKFPGNKLEYMGYISYSGSTYYNPSLKSRISITRDTSKNQYYLQLNSVTTEDTATYYCARDFDVWGAGTTVTVSS VL: DIVMTQSQKFMSTSVGDRVSVTCKASQNVGTNVAWYQQKPGQSPKALIYSASYRYSGVPDRFTGSGSGTDFTLTISNVQSEDLAEYFCQQYDSYPLTFGSGTKLEIK | 58.5 | 0.00803 | 137000
clone 2.1 Fab TA_5 (Fab, V domains shown) VH: EVQLQESGPSLVKPSQTLSLTCSVTGASITSGYWNWIRKFPGNKLEYMGYISYSGSTYYNPSLKSRISITRDTSKNQYYLQLNSVTTEDTATYYCARDFDVWGAGTTVTVSS VL: DIVMTQSQKFMSTSVGDRVSVTCKASQNVGTNVAWYQQKPGQSPKALIYSASYRYSGVPDRFTGSGSGTDFTLTISNVQSEDLAEYFCQQYNSYPLTFGSGTKLEIK | 3.81 | 0.000858 | 225000
clone 2.1 Fab TA_24 (Fab, V domains shown) VH: EVQLQESGPSLVKPSQTLSLTCSVTGDSITSGYWNWIRKFPGNKLEYMGYISYSGSTYYNPSLKSRISITRDTSKNQYYLQLNSVTTEDTATYYCARDFDVWGAGTTVTVSS VL: DIVMTQSQKFMSTSVGDRVSVTCKASQNVGTNVAWYQQKPGQSPKALIYSASYRYSGVPDRFTGSGSGTDFTLTISNVQSEDLAEYFCQQYYSYPLTFGSGTKLEIK | 7.72 | 0.000911 | 118000
clone 2.1 Fab TA_22 (Fab, V domains shown) VH: EVQLQESGPSLVKPSQTLSLTCSVTGDSITSGYWNWIRKFPGNKLEYMGYISYSGSTYYNPSLKSRISITRDTSKNQYYLQLNSVTTEDTATYYCARDFDVWGAGTTVTVSS VL: DIVMTQSQKFMSTSVGDRVSVTCKASQNVGTNVAWYQQKPGQSPKALIYSASYRYSGVPDRFTGSGSGTDFTLTISNVQSEDLAEYFCQQYSSYPLTFGSGTKLEIK | 14.9 | 0.00124 | 83500
clone 2.1 Fab TA_14 (Fab, V domains shown) VH: EVQLQESGPSLVKPSQTLSLTCSVTGDSITSGYWNWIRKFPGNKLEYMGYISYSGSTYYNPSLKSRISITRDTSKNQYYLQLNSVTTEDTATYYCARDFDVWGAGTTVTVSS VL: DIVMTQSQKFMSTSVGDRVSVTCKASQNVGTNVAWYQQKPGQSPKSLIYSASYRYSGVPDRFTGSGSGTDFTLTISNVQSEDLAEYFCQQYNSYPLTFGSGTKLEIK | 6.25 | 0.00139 | 223000
clone 2.1 Fab TA_25 (Fab, V domains shown) VH: EVQLQESGPSLVKPSQTLSLTCSVTGDSITSGYWNWIRKFPGNKLEYMGYISYSGSTYYNPSLKSRISITRDTSKNQYYLQLNSVTTEDTATYYCARDFDVWGAGTTVTVSS VL: DIVMTQSQKFMSTSVGDRVSVTCKASQNVGTNVAWYQQKPGQSPKALIYSASYRYSGVPDRFTGSGSGTDFTLTISNVQSEDLAEYFCHQYYSYPLTFGSGTKLEIK | 3.2 | 0.000412 | 129000
clone 2.1 Fab TA_23 (Fab, V domains shown) VH: EVQLQESGPSLVKPSQTLSLTCSVTGDSITSGYWNWIRKFPGNKLEYMGYISYSGSTYYNPSLKSRISITRDTSKNQYYLQLNSVTTEDTATYYCARDFDVWGAGTTVTVSS VL: DIVMTQSQKFMSTSVGDRVSVTCKASQNVGTNVAWYQQKPGQSPKALIYSASYRYSGVPDRFTGSGSGTDFTLTISNVQSEDLAEYFCHQYNSYPLTFGSGTKLEIK | 13.3 | 0.00133 | 100000
clone 2.1 Fab TA_12 (Fab, V domains shown) VH: EVQLQESGPSLVKPSQTLSLTCSVTGDSITSGYWNWIRKFPGNKLEYMGYISYSGSTYYNPSLKSRISITRDTSKNQYYLQLNSVTTEDTATYYCARDFDVWGAGTTVTVSS VL: DIVMTQSQKFMSTSVGDRVSVTCKASQNVGTNVAWFQQKPGQSPKALIYSASYRYSGVPDRFTGSGSGTDFTLTISNVQSEDLAEYFCQQYNSYPLTFGSGTKLEIK | 22.7 | 0.00408 | 180000
clone 2.1 Fab TA_13 (Fab, V domains shown) VH: EVQLQESGPSLVKPSQTLSLTCSVTGDSITSGYWNWIRKFPGNKLEYMGYISYSGSTYYNPSLKSRISITRDTSKNQYYLQLNSVTTEDTATYYCARDFDVWGAGTTVTVSS VL: DIVMTQSQKFMSTSVGDRVSVTCKASQNVGTNVGWFQQKPGQSPKALIYSASYRYSGVPDRFTGSGSGTDFTLTISNVQSEDLAEYFCHQYYSYPLTFGSGTKLEIK | 0.549 | 0.000119 | 216000
clone 2.1 Fab TA_27 (Fab, V domains shown) VH: EVQLQESGPSLVKPSQTLSLTCSVTGDSITSGYWNWIRKFPGNRLEYMGYISYSGSTYYNPSLKSRISITRDTSKNQYYLQLNSVTTEDTATYYCARDFDVWGAGTTVTVSS VL: DIVMTQSQKFMSTSVGDRVSVTCKASQNVGTNVGWFQQKPGQSPKSLIYSASYRYSGVPDRFTGSGSGTDFTLTISNVQSEDLAEYFCQQYSSYPLTFGSGTKLEIK | 0.28 | 0.000203 | 724000
clone 2.1 Fab TA_15 (Fab, V domains shown) VH: EVQLQESGPSLVKPSQTLSLTCSVTGDSITSGYWNWIRKFPGNKLEYMGYISYSGSTYYNPSLKSRISITRDTSKNQYYLQLNSVTTEDTATYYCARDFDVWGAGTTVTVSS VL: DIVMTQSQKFMSTSVGDRVSVTCKASQNVGTNVAWYQQKPGQSPKALIFSASYRYSGVPDRFTGSGSGTDFTLTISNVQSEDLAEYFCQQYNSYPLTFGSGTKLEIK | 14.4 | 0.00168 | 116000
clone 2.1 Fab TA_11 (Fab, V domains shown) VH: EVQLQESGPSLVKPSQTLSLTCSVTGDSITSGYWNWIRKFPGNRLEYMGYISYSGSTYYNPSLKSRISITRDTSKNQYYLQLNSVTTEDTATYYCARDFDVWGAGTTVTVSS VL: DIVMTQSQKFMSTSVGDRVSVTCKASQNVGTNVAWYQQKPGQSPKALIYSASYRYSGVPDRFTGSGSGTDFTLTISNVQSEDLAEYFCQQYNSYPLTFGSGTKLEIK | 21.6 | 0.00331 | 153000
